The record followed here is patent US11957716B2 (Immatics Biotechnologies GmbH, priority 2021, dated 2024).

One assay addresses HLA-A*02:01 (Homo sapiens, UniProt P04439, D140Y/D185E/D98H/E176V/E277Q/G131W/G231S/I119V/I121R/I166T/I218V/L300P/L318F/N151K/N90K/P208A/P217A/Q86G/Q94H/R138H/R169H/T345S). In words: MHC binding assay, UV-ligand exchange ELISA. To be noted: peptide exchange yield, binding to HLA-A*02:01. For orientation: ELISA stands for enzyme-linked immunosorbent assay.
Assay [1] deals with HLA-A*01:01, HLA-A*02:01, HLA-A*03:01, HLA-A*24:02, HLA-B*07:02, HLA-B*08:01 and HLA-B*44:02. The assay is described as follows: HLA alleles the peptides bind to (Table 7). It is filed as binding, human. To be noted: allotype from the group HLA-A*01:01, HLA-A*02:01, HLA-A*03:01, HLA-A*24:02, HLA-B*07:02, HLA-B*08:01, HLA-B*44:02. From the text: However, due to similarities in binding pattern such as the relevant anchoring positions some peptides bind to more than one allele, such an overlap is most likely, but not limited to, HLA-A*01 binding peptides also binding to HLA-B*15, HLA-A*03 binding peptides also binding to HLA-A*11, HLA-B*07 binding peptides also binding to HLA-B*35 and HLA-B*51.

For another assay, the target named is HLA-A*24:02 (Homo sapiens, UniProt P04439, D101N/D140Y/D185E/E176V/E190D/F33S/G103R/G107R/I119L/I121M/I306V/K335N/L105A/L180Q/L300P/N151K/N90K/Q86E/Q94H/R106L/R138H/R89G/T104I/T345S/V100E/W191G/Y123F). In words: MHC binding assay, UV-ligand exchange ELISA. Particulars: peptide exchange yield, binding to HLA-A*24:02.

Take “10 (ILMILQPQL; listed as Homo sapiens) [compound 10]”: the Peptide exchange entry in the assay with HLA-A*02:01 is on record as “++++ (≥75% = ++++)”. For the same substance, the “Binders (HLA alleles the peptides according to the invention bind to)” value (shortened to “Binders”) in assay [1] is reported as “HLA-A*02:01”.
With “145 (HLFSVLSAI; listed as Homo sapiens) [compound 145]”, the Peptide exchange entry with HLA-A*02:01 is given as “++++ (≥75% = ++++)”. In assay [1], the “Binders” value was “HLA-A*02:01”.
In the same order, the values of “42 (LLSRGILIL; listed as Homo sapiens) [compound 42]” are “++++ (≥75% = ++++)” and “HLA-A*02:01”.
In the same order, the values of “130 (ITPDSIPSV; listed as Homo sapiens) [compound 130]” are “+++ (≥50% = +++)” and “HLA-A*02:01”.
On to “74 (TLNVLITL; listed as Homo sapiens) [compound 74]”, for which, in the assay with HLA-A*02:01, the Peptide exchange entry is reported as “++ (≥20% = ++)”. Further, the “Binders” value in assay [1] is on record as “HLA-A*02:01”.
With “9 (LLGVVSHSV; listed as Homo sapiens) [compound 9]”, the Peptide exchange result with HLA-A*02:01 is on record as “++++ (≥75% = ++++)”. Further, the “Binders” value in assay [1] is reported as “HLA-A*02:01”.
“200 (GLLGTLRVL; listed as Homo sapiens) [compound 200]”: the Peptide exchange entry with HLA-A*02:01 is “++++ (≥75% = ++++)”. The “Binders” value in assay [1] is “HLA-A*02:01”.
In the same order, the values of “18 (SLSKLVATV; listed as Homo sapiens) [compound 18]” are “++++ (≥75% = ++++)” and “HLA-A*02:01”.
In the same order, the values of “170 (LLDSWNILI; listed as Homo sapiens) [compound 170]” are “++++ (≥75% = ++++)” and “HLA-A*02:01”.
In the same order, the values of “188 (KLPFFTNFL; listed as Homo sapiens) [compound 188]” are “++++ (≥75% = ++++)” and “HLA-A*02:01”.
For the substance “30 (SLKSSILFL; listed as Homo sapiens) [compound 30]”, the Peptide exchange result with HLA-A*02:01 was “+++ (≥50% = +++)”. Further, in assay [1], the “Binders” value was “HLA-A*02:01”.
Consider “108 (SLQESLPNA; listed as Homo sapiens) [compound 108]”, for which, in the assay with HLA-A*02:01, the Peptide exchange result was “+++ (≥50% = +++)”. For the same substance, the “Binders” value in assay [1] is given as “HLA-A*02:01”.
For the substance “116 (IYLTKSNLVNM; listed as Homo sapiens) [compound 116]”, the Peptide exchange entry with HLA-A*24:02 was “++++ (75% = ++++)”. In addition, the “Binders” value in assay [1] is “HLA-A*24:02”.
As for “33 (AYIPFPPLI; listed as Homo sapiens) [compound 33]”, the Peptide exchange entry with HLA-A*24:02 is reported as “++++ (75% = ++++)”. In addition, the “Binders” value in assay [1] was “HLA-A*24:02”.
On to “115 (LWEEKPVCL; listed as Homo sapiens) [compound 115]”, for which the Peptide exchange entry with HLA-A*24:02 was “++ (20% = ++)”. The “Binders” value in assay [1] was “HLA-A*24:02”.
On to “67 (GRFWLPFNF; listed as Homo sapiens) [compound 67]”, for which, in the assay with HLA-A*24:02, the Peptide exchange entry is “++ (20% = ++)”. Moreover, in assay [1], the “Binders” value was “HLA-A*24:02”.
In the case of “118 (RLLRLIPIL; listed as Homo sapiens) [compound 118]”, the Peptide exchange result in the assay with HLA-A*02:01 is on record as “++++ (≥75% = ++++)”. The “Binders” value in assay [1] is given as “HLA-A*02:01”.
With “57 (IIIDRILLL; listed as Homo sapiens) [compound 57]”, in the assay with HLA-A*02:01, the Peptide exchange result is reported as “++++ (≥75% = ++++)”. The “Binders” value in assay [1] is recorded as “HLA-A*02:01”.
Take “69 (KYPTIICGF; listed as Homo sapiens) [compound 69]”: the Peptide exchange entry with HLA-A*24:02 is on record as “++++ (75% = ++++)”. Moreover, the “Binders” value in assay [1] is on record as “HLA-A*24:02”.
In the case of “47 (LYIFTTRPF; listed as Homo sapiens) [compound 47]”, the Peptide exchange entry in the assay with HLA-A*24:02 is “++++ (75% = ++++)”. In addition, the “Binders” value in assay [1] is “HLA-A*24:02”.
As to “106 (GLLDAFLRL; listed as Homo sapiens) [compound 106]”, the Peptide exchange entry with HLA-A*02:01 is “++++ (≥75% = ++++)”. The “Binders” value in assay [1] is “HLA-A*02:01”.
As to “123 (TYLESSVRI; listed as Homo sapiens) [compound 123]”, the Peptide exchange entry in the assay with HLA-A*24:02 was “++++ (75% = ++++)”. The “Binders” value in assay [1] is “HLA-A*24:02”.
Taken in the same sequence, the figures for “80 (IFDLSDPRF; listed as Homo sapiens) [compound 80]” were “++ (20% = ++)” and “HLA-A*24:02”.
Regarding “167 (FALGPIIKQL; listed as Homo sapiens) [compound 167]”, the Peptide exchange result in the assay with HLA-A*02:01 was “+++ (≥50% = +++)”. The “Binders” value in assay [1] is reported as “HLA-A*02:01”.
In the same order, the values of “12 (RLQEGLAAL; listed as Homo sapiens) [compound 12]” are “++++ (≥75% = ++++)” and “HLA-A*02:01”.
In the same order, the values of “121 (ILVTAWKGV; listed as Homo sapiens) [compound 121]” are “+++ (≥50% = +++)” and “HLA-A*02:01”.
Consider “6 (SHSLPAFTL; listed as Homo sapiens) [compound 6]”, for which, in the assay with HLA-A*24:02, the Peptide exchange result was “++ (20% = ++)”. Further, in assay [1], the “Binders” value is on record as “HLA-A*24:02”.
With “194 (VLYPSHSSF; listed as Homo sapiens) [compound 194]”, the Peptide exchange entry with HLA-A*24:02 is reported as “++ (20% = ++)”. Besides, in assay [1], the “Binders” value was “HLA-A*24:02”.
As to “45 (SLFPISLTV; listed as Homo sapiens) [compound 45]”, the Peptide exchange entry with HLA-A*02:01 was “++++ (≥75% = ++++)”. Further, in assay [1], the “Binders” value is listed as “HLA-A*02:01”.
With “7 (IYIPTNSIYKF; listed as Homo sapiens) [compound 7]”, the Peptide exchange entry with HLA-A*24:02 is on record as “++++ (75% = ++++)”. The “Binders” value in assay [1] is “HLA-A*24:02”.
Taken in the same sequence, the figures for “49 (IYFHLNNWTI; listed as Homo sapiens) [compound 49]” were “++++ (75% = ++++)” and “HLA-A*24:02”.
Regarding “4 (IQAPALLKV; listed as Homo sapiens) [compound 4]”, the Peptide exchange entry with HLA-A*02:01 is on record as “++++ (≥75% = ++++)”. Further, in assay [1], the “Binders” value is on record as “HLA-A*02:01”.
With “105 (LVFESVVAA; listed as Homo sapiens) [compound 105]”, the Peptide exchange entry in the assay with HLA-A*02:01 was “++++ (≥75% = ++++)”. The “Binders” value in assay [1] was “HLA-A*02:01”.
For the substance “82 (VLQSLQHEL; listed as Homo sapiens) [compound 82]”, in the assay with HLA-A*02:01, the Peptide exchange entry is listed as “++++ (≥75% = ++++)”. Also, in assay [1], the “Binders” value is listed as “HLA-A*02:01”.
Consider “195 (AWNESSAWLL; listed as Homo sapiens) [compound 195]”, for which, in the assay with HLA-A*24:02, the Peptide exchange entry was “++++ (75% = ++++)”. For the same substance, in assay [1], the “Binders” value is reported as “HLA-A*24:02”.
With “160 (EYLGSENVF; listed as Homo sapiens) [compound 160]”, the Peptide exchange entry in the assay with HLA-A*24:02 is reported as “+++ (50% = +++)”. For the same substance, the “Binders” value in assay [1] is recorded as “HLA-A*24:02”.
Take “142 (YMLEMDNSMKI; listed as Homo sapiens) [compound 142]”: in the assay with HLA-A*02:01, the Peptide exchange entry is reported as “++++ (≥75% = ++++)”. For the same substance, the “Binders” value in assay [1] is given as “HLA-A*02:01”.
In the case of “14 (ILAPPQRISF; listed as Homo sapiens) [compound 14]”, in the assay with HLA-A*24:02, the Peptide exchange result is recorded as “++++ (75% = ++++)”. In addition, the “Binders” value in assay [1] is listed as “HLA-A*24:02”.
Turning to “153 (ALNLSRLTV; listed as Homo sapiens) [compound 153]”, in the assay with HLA-A*02:01, the Peptide exchange entry is given as “++++ (≥75% = ++++)”. Moreover, the “Binders” value in assay [1] is reported as “HLA-A*02:01”.
Regarding “102 (FLLLEKGGEL; listed as Homo sapiens) [compound 102]”, the Peptide exchange entry in the assay with HLA-A*02:01 was “++++ (≥75% = ++++)”. In addition, the “Binders” value in assay [1] is listed as “HLA-A*02:01”.
“3 (VYIASSFKI; listed as Homo sapiens) [compound 3]”: in the assay with HLA-A*24:02, the Peptide exchange entry is “++++ (75% = ++++)”. Also, in assay [1], the “Binders” value is “HLA-A*24:02”.
In the case of “113 (ALGPMAFRV; listed as Homo sapiens) [compound 113]”, the Peptide exchange result in the assay with HLA-A*02:01 is listed as “++++ (≥75% = ++++)”. Besides, in assay [1], the “Binders” value is on record as “HLA-A*02:01”.
In the case of “97 (ALIVLHLSL; listed as Homo sapiens) [compound 97]”, the Peptide exchange entry with HLA-A*02:01 is given as “++ (≥20% = ++)”. In assay [1], the “Binders” value is on record as “HLA-A*02:01”.
